{"source": "patent US20220098591", "about": "“STEM-LOOP COMPOSITIONS AND METHODS FOR INHIBITING VASCULAR ENDOTHELIAL GROWTN FACTOR” (DRIVE THERAPEUTICS LLC, published 2022)", "binders": {"B1": {"name": "Aptamer 196 (ssRNA)", "RNA": "AGGCCGACCCGCGCGGAGGGGUUUCAUUAUCCCGUUUGUCGGCUU", "modifications": "G 2'-F except G22 2'-OMe; A,C,U 2'-OMe; Sp3 joins the two parts; 5' C6NH2; 3' idT"}, "B2": {"name": "Aptamer 198 (ssRNA)", "RNA": "B1 RNA", "modifications": "G 2'-F except G39 2'-OMe; A,C,U 2'-OMe; Sp3 joins the two parts; 5' C6NH2; 3' idT"}, "B3": {"name": "Aptamer 276 (ssRNA)", "RNA": "ACCCGCGCGGAGGGGUUUCAUUAUCCCGUUUGU", "modifications": "G 2'-F except 2'-OMe-G as X in AC-Sp3-CCGCGCGGAGGGXUUUCAUUAUCCCGUUUGU; A,C,U 2'-OMe; Sp3 joins the two parts; 5' C6NH2; 3' idT"}, "B4": {"name": "Aptamer 285 (ssRNA)", "RNA": "CGACCCGCGCGGAGGGGUUUCAUAAUCCCGUUUGUCG", "modifications": "G 2'-F except 2'-OMe-G as X in CXAC-Sp3-CCGCGCGGAGGGXUUUCAUAAUCCCGUUUXUCX; A,C,U 2'-OMe; Sp3 joins the two parts; 5' C6NH2; 3' idT"}}, "data": [{"target": "T1, VEGF-A121 (Homo sapiens, UniProt P15692 SEQ:1-121)", "assay": "cell_activity; KDR phosphorylation in HEK293-KDR", "details": "tags: glycan biotinylated in TR-FRET; Biolegend in the cell assay; chain copies: 2", "description": "(§1) Briefly, HEK293 cells engineered to stably overexpress KDR were plated overnight in collagen coated 96 well plates at 50 k cells/well. Aptamers in SB1+ (40 mM HEPES, pH 7.5, 125 mM NaCl, 5 mM KCl, 1 mM MgCl₂) were heated to 90° C. for 3 minutes and allowed to cool to room temperature for a minimum of 10 minutes. […] 15 μL of VEGF-A was added to 15 μL titrated aptamer in a polypropylene plate and diluted to 300 μL with TS buffer (10 mM Tris pH 7.5; 100 mM NaCl; 5.7 mM KCl; 1 mM MgCl₂; 1 mM CaCl₂). The aptamer/VEGF-A mixture was incubated at 37° C. for 30 minutes, after which 100 μL was added to the cells for 5 minutes at 37° C. in 5% CO₂. Treatments were aspirated from cells, and cells were lysed with 100 μL cold lysis buffer [20 mM Tris-HCl, pH 7.5, 150 mM NaCl, 1 mM EDTA, 1% Triton X-100, 0.5 mM sodium orthovanadate (freshly prepared), 1 mM PMSF (freshly prepared), lx protease inhibitor cocktail (freshly prepared)] on ice for 10 minutes. Plates were centrifuged at 4000×g for 10 minutes before transferring the cell lysis to the AlphaLISA® assay plate.\n(§2) To perform the AlphaLISA® assay, 10 μL of cell lysis was transferred to a white low volume 384 well Optiplate (Perkin Elmer). […] 10 μL of this reagent mixture was added to the assay plate that contained 10 μL of cell lysate. The assay plate was sealed and incubated in the dark for approximately 2 hours, then was read on a Biotek CYTATION™ 5 plate reader using the Alpha 384 well optical cube. Percent inhibition was calculated by subtracting TS buffer background from each value and normalizing to VEGF-A only controls. The values were fit by using a four-parameter non-linear fit in GraphPad Prism Version 7.0.", "units": {"activity": "% inhibition at 100 nM"}, "values": [{"binder": "UAGGCCGCCUCCGCGCGGAGGGGUUUCAUUUAUCCCGUUUGGCGGCUUU (ssRNA, 2'-F G; 2'-OMe A,C,U; 5' C6NH2; 3' idT)", "activity": "> 50"}, {"binder": "UAGACCGCCUCCGCGCGGAGGGGUUUCAUUAUCCCGUUUGGCGGCUUU (ssRNA, 2'-F G; 2'-OMe A,C,U; 5' C6NH2; 3' idT)", "activity": "> 50"}, {"binder": "UAGGCCGCCUCCGCGCGGAGGGGUUUCAUUAUCCCGUUUGGCGGCCUU (ssRNA, 2'-F G; 2'-OMe A,C,U; 5' C6NH2; 3' idT)", "activity": "> 50"}, {"binder": "UAGUCCGCCUCCGCGCGGAGGGGUUUCAUUAUCCCGUUUGGCGGCUUU (ssRNA, 2'-F G; 2'-OMe A,C,U; 5' C6NH2; 3' idT)", "activity": "> 50"}]}, {"target": "T1, VEGF-A121", "assay": "competition; TR-FRET; stem S2 mispaired", "details": "tags: glycan-biotinylated for SPR/FRET/AlphaLISA; Acro BioSystems, Biolegend; chain copies: 2 (stated)", "description": "(§3) Briefly, for competition TR-FRET, 2-fold dilutions of thermally equilibrated aptamers were made in TR-FRET Buffer (50 mM MOPS, pH 7.4, 125 mM NaCl, 5 mM KCl, 50 μM CHAPS, 0.1 mg/mL BSA, 1 mM CaCl₂, and 1 mM MgCl₂). 5 μL of aptamer or control solution was added to a 15 μL mix of glycan biotinylated […] (5 nM final), ALEXA FLUOR® 647-labeled Aptamer (30 nM final), and Streptavidin-Eu (Perkin Elmer; 2.5 nM final) in a black wall low volume 384 well plate (Greiner). For control, 5 μl of 1000-fold excess of unlabeled parent aptamer or 5 μl TR-FRET buffer alone was added to the mix of ALEXA FLUOR® 647-labeled aptamer, biotin-VEGF-A, and Streptavidin-Eu. The plate was covered with a plate seal and subsequently incubated in the dark for 1 hour at room temperature. The plate was read on a Biotek CYTATION™ 5 plate reader. Samples were excited at 330 nm and fluorescent values were collected at 665 nm. Data analysis was performed by subtracting the background value and plotting as percent inhibition, normalized to baseline in the absence of competitor. The values were fit by [Inhibitor] vs. response-Variable slope (four parameters) using GraphPad Prism Version 7.0 and then normalized to aptamer control to obtain an IC₅₀ relative to parent aptamer. Data is presented as log values of relative IC₅₀. […]", "values": [{"binder": "AGGCCGCCUUUGCGCUUAGGGGUUUCAUUAUCCCGUUUGGCGGCUU (ssRNA, all G 2'-F; A,C,U 2'-OMe; 5' C6NH2; 3' idT)", "note": "[Aptamer 182]", "binding signal": "> 100 fold worse IC50 vs Aptamer 26"}, {"binder": "AGGCCGCCUCCGCGCCCAGGGGUUUCAUUAUCCCGUUUGGCGGCUU (ssRNA, all G 2'-F; A,C,U 2'-OMe; 5' C6NH2; 3' idT)", "note": "[Aptamer 183]", "binding signal": "> 100 fold worse IC50 vs Aptamer 26"}]}, {"target": "T2, VEGF-A165 (Homo sapiens)", "T2 chain": "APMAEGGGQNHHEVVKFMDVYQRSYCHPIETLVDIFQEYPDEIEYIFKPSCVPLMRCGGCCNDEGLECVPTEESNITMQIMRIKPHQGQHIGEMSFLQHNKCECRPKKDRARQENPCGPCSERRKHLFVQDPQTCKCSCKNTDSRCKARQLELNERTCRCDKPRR", "assay": "cell_activity; KDR phosphorylation; >50% at 100 nM with VEGF-A121", "details": "tags: glycan-biotinylated for SPR/FRET/AlphaLISA; Acro BioSystems, R&D Systems; chain copies: 2 (inferred)", "description": "as §1, §2", "units": {"activity": "% inhibition at 10 nM"}, "values": [{"binder": "UAGGCCGCCUCCGCGCGGAGGGGUUUCAUUUAUCCCGUUUGGCGGCUUU (ssRNA, all G 2'-F; A,C,U 2'-OMe; 5' C6NH2; 3' idT)", "activity": "> 50"}, {"binder": "UAGUCCGCCUCCGCGCGGAGGGGUUUCAUUAUCCCGUUUGGCGGCUUU (ssRNA, all G 2'-F; A,C,U 2'-OMe; 5' C6NH2; 3' idT)", "activity": "> 50"}, {"binder": "UAGACCGCCUCCGCGCGGAGGGGUUUCAUUAUCCCGUUUGGCGGCUUU (ssRNA, all G 2'-F; A,C,U 2'-OMe; 5' C6NH2; 3' idT)", "activity": "> 50"}, {"binder": "UAGGCCGCCUCCGCGCGGAGGGGUUUCAUUAUCCCGUUUGGCGGCCUU (ssRNA, all G 2'-F; A,C,U 2'-OMe; 5' C6NH2; 3' idT)", "activity": "> 50"}]}, {"target": "T1, VEGF-A121", "assay": "competition; TR-FRET", "details": "tags: glycan-biotinylated for SPR/FRET/AlphaLISA; Acro BioSystems, Biolegend; chain copies: 2 (stated)", "description": "(§4) Briefly, for competition TR-FRET, 2-fold dilutions of thermally equilibrated aptamers were made in TR-FRET Buffer (50 mM MOPS, pH 7.4, 125 mM NaCl, 5 mM KCl, 50 μM CHAPS, 0.1 mg/mL BSA, 1 mM CaCl₂, and 1 mM MgCl₂). 5 μL of aptamer or control solution was added to a 15 μL mix of glycan biotinylated […] (5 nM final), ALEXA FLUOR® 647-labeled Aptamer (30 nM final), and Streptavidin-Eu (Perkin Elmer; 2.5 nM final) in a black wall low volume 384 well plate (Greiner). For control, 5 μl of 1000-fold excess of unlabeled parent aptamer or 5 μl TR-FRET buffer alone was added to the mix of ALEXA FLUOR® 647-labeled aptamer, biotin-VEGF-A, and Streptavidin-Eu. The plate was covered with a plate seal and subsequently incubated in the dark for 1 hour at room temperature. The plate was read on a Biotek CYTATION™ 5 plate reader. Samples were excited at 330 nm and fluorescent values were collected at 665 nm. Data analysis was performed by subtracting the background value and plotting as percent inhibition, normalized to baseline in the absence of competitor. The values were fit by [Inhibitor] vs. response-Variable slope (four parameters) using GraphPad Prism Version 7.0 and then normalized to aptamer control to obtain an IC₅₀ relative to parent aptamer. Data is presented as log values of relative IC₅₀.\nStarting at position 6, 2′F-G residues were systematically replaced, one at a time, and the activity of the resultant molecule was assessed by competition TR-FRET, as described in Example 7, against the parent molecule, Aptamer 141.", "values": [{"binder": "B1", "binding signal": "~2 fold better IC50 vs Aptamer 141"}, {"binder": "B2", "binding signal": "~2 fold better IC50 vs Aptamer 141"}, {"binder": "GCCGACCCGCGCGGAGGGGUUUCAUUACCCCGUUUGUCGGC (ssRNA, all G 2'-F; A,C,U 2'-OMe; Sp3 joins the two parts; 5' C6NH2; 3' idT)", "note": "[Aptamer 199]", "binding signal": "~2 fold better IC50 vs Aptamer 141"}]}, {"target": "T1, VEGF-A121", "assay": "competition; TR-FRET", "details": "tags: glycan-biotinylated for SPR/FRET/AlphaLISA; Acro BioSystems, Biolegend; chain copies: 2 (stated)", "remark": "another data set of the same source", "description": "as §4", "values": [{"binder": "B3", "binding signal": "> 100 fold worse IC50 vs Aptamer 141"}, {"binder": "B4", "binding signal": "~10 fold better IC50 vs Aptamer 141"}, {"binder": "AGGCCGCCUCCGCGCGGAGGGGUUCAUUAUCCCGUUUGGCGGCUU (ssRNA, all G 2'-F; A,C,U 2'-OMe; Sp3 joins the two parts; 5' C6NH2; 3' idT)", "note": "[Aptamer 63]", "binding result": "binds"}, {"binder": "AGGCCGCCUCCGCGCGGAGGGGUUUCAUAUCCCGUUUGGCGGCUU (ssRNA, all G 2'-F; A,C,U 2'-OMe; Sp3 joins the two parts; 5' C6NH2; 3' idT)", "note": "[Aptamer 66]", "binding result": "binds"}, {"binder": "AGGCCGCCUCCGCGCGGAGGGGUUUCAUAUCCCGUUUGGCGGCUU (ssRNA, all G 2'-F; A,C,U 2'-OMe; Sp3 joins the two parts; 5' C6NH2; 3' idT)", "note": "[Aptamer 67]", "binding result": "binds"}, {"binder": "AGGCCGCCUCCGCGCGGAGGGGUUUCAUUUCCCGUUUGGCGGCUU (ssRNA, all G 2'-F; A,C,U 2'-OMe; Sp3 joins the two parts; 5' C6NH2; 3' idT)", "note": "[Aptamer 68]", "binding signal": "> 100 fold worse IC50 vs Aptamer 26"}, {"binder": "AGGCCGCCUCCGCGCGGAGGGGUUUCUUAUCCCGUUUGGCGGCUU (ssRNA, all G 2'-F; A,C,U 2'-OMe; Sp3 joins the two parts; 5' C6NH2; 3' idT)", "note": "[Aptamer 65]", "binding result": "binds"}]}, {"target": "T1, VEGF-A121", "assay": "competition; TR-FRET; stem S1 mispaired", "details": "tags: glycan-biotinylated for SPR/FRET/AlphaLISA; Acro BioSystems, Biolegend; chain copies: 2 (stated)", "description": "as §3", "values": [{"binder": "AGGCCGCAUCCGCGCGGAGGGGUUUCAUUAUCCCGUUUAACCGCUU (ssRNA, all G 2'-F; A,C,U 2'-OMe; 5' C6NH2; 3' idT)", "note": "[Aptamer 180]", "binding signal": "> 100 fold worse IC50 vs Aptamer 26"}, {"binder": "AGGCCGCAUCCGCGCGGAGGGGUUUCAUUAUCCCGUUUAACCGAUU (ssRNA, all G 2'-F; A,C,U 2'-OMe; 5' C6NH2; 3' idT)", "note": "[Aptamer 181]", "binding signal": "> 100 fold worse IC50 vs Aptamer 26"}]}]}
